How the values were obtained:
FUS-mEmerald [1] = target: FUS-mEmerald (UniProt P35637); experiment: tie line gradient analysis (FUS dilute phase concentration by confocal detection in a microfluidic flow cell); mEmerald-tagged FUS; DNAJB6 varied 0-4 µM; FUS dilute phase concentration read after phase separation
FUS-mEmerald [2] = target: FUS-mEmerald (UniProt P35637)

Chain of UniProt P35637 (P35637 whole entry): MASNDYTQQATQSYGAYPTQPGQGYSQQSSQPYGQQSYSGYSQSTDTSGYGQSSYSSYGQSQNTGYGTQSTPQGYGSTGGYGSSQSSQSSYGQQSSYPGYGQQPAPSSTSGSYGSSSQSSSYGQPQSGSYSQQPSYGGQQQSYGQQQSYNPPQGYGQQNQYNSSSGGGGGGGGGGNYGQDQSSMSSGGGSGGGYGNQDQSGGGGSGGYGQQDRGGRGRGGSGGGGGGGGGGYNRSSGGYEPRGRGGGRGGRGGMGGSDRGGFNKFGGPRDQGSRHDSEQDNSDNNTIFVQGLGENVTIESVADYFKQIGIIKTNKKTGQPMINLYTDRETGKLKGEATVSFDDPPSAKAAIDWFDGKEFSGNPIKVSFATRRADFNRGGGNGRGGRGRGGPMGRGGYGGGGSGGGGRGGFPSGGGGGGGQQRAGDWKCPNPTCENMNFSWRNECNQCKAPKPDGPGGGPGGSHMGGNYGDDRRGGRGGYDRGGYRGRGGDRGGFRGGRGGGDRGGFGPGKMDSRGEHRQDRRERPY

Question: For “purified recombinant human DNAJB6 (from UniProt O75190 1-326) (natural protein)”, which tie line gradient (µM DNAJB6 / µM FUS) (FUS-mEmerald [1]) is on record?
Answer: Its tie line gradient (µM DNAJB6 / µM FUS) is 3.

Question: And the Young's modulus of FUS + DNAJB6 condensates by AFM, 2 h (~31 kPa) to 48 h; FUS-only condensates rise from ~9 kPa to ~25,000 kPa (FUS-mEmerald [2])?
Answer: The Young's modulus of FUS + DNAJB6 condensates by AFM, 2 h (~31 kPa) to 48 h; FUS-only condensates rise from ~9 kPa to ~25,000 kPa was 40 kPa.

From publication PMC12638947
